The results in this text go back to article PMC11481384, “Ponicidin Promotes Hepatocellular Carcinoma Mitochondrial Apoptosis by Stabilizing Keap1‐PGAM5 Complex” (Advanced Science, 2024).

The target in the assay is T1, Keap1 Kelch domain (amino acid residues 309 to 624) (human, UniProt Q14145 309-624).
T1 construct: Keap1, Kelch domain, Gene ID 9817 (the human gene), amino acid residues 309 to 624; The species is not put in words; it follows from the printed Gene ID 9817; also called Kelch domain of Keap1; source: E. coli BL21 (Codonplus), purified (Ni-NTA, HiTrap QHP, Superdex 200 Increase)
T1 sequence (Q14145 309-624): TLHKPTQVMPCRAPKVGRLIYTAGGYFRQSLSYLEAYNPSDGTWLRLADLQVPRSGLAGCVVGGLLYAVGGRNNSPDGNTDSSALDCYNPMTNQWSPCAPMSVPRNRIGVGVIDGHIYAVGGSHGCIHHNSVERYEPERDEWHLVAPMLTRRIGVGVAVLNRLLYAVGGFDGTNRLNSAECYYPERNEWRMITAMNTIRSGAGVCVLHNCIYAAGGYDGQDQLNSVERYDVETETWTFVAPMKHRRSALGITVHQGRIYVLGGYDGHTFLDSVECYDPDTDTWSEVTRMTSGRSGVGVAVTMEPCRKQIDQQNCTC
Put plainly: native gel or EMSA; purified Kelch, Δ54‐PGAM5 and ponicidin incubated on ice for 30 min; 7% non‐denatured gel, 4 °C, 90 V, 1 h; Coomassie staining. As to conditions: both partners purified. Background: Mobility shift assays separate free from complexed probe on a gel.

B1: ∆54‐PGAM5 (amino acids from number 54 to 289) (domain or fragment, human, UniProt Q96HS1 54-289, looked up)
chain: GPGVWDPNWDRREPLSLINVRKRNVESGEEELASKLDHYKAKATRHIFLIRHSQYHVDGSLEKDRTLTPLGREQAELTGLRLASLGLKFNKIVHSSMTRAIETTDIISRHLPGVCKVSTDLLREGAPIEPDPPVSHWKPEAVQYYEDGARIEAAFRNYIHRADARQEEDSYEIFICHANVIRYIVCRALQFPPEGWLRLSLNNGSITHLVIRPNGRVALRTLGDTGFMPPDKITRS
notes: PGAM5, Gene ID 192111 (the human gene), amino acid residues 54 to 289; The species is not put in words; it follows from the printed Gene ID 192111; also called Δ54‐PGAM5; PGAM5 domain; source: E. coli BL21 (Codonplus), purified (Ni-NTA, HiTrap QHP, Superdex 200 Increase)
Consider B1, for which the binding result was “binds”.
